Measured values from US20240294622A1 (SUZHOU TRANSCENTA THERAPEUTICS, published 2024).
One block for each binder: values may come before it.

Legend:
XM5-his = biological target: T1, XM5-his (human (hGREM1 with residues 123-143 …)); assay: ELISA: antibody coated, XM5-his supernatant titrated (axis: supernatant percentage, %), anti-his-HRP
T1 construct: Unpurified supernatant used; also called gremlin-DAN fusion protein XM5; chimeric hGREM1
T1 chain: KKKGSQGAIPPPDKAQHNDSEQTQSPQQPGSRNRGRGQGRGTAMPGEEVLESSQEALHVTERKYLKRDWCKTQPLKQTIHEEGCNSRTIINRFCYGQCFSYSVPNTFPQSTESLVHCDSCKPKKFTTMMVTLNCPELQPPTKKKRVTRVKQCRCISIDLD
Experimental: (§1) Using a similar ELISA protocol mentioned above, binding of chimeric antibody 14E3 to XM5 or Gremlin were tested. […] The secondary antibody anti-his-HRP was used for detection.

hGREM1 (Peprotech) [1] = biological target: T2, hGREM1 (Peprotech) (human, UniProt O60565 25-184); assay: Biacore at 25 °C, Gremlin (Peprotech) on the chip, antibody as analyte
T2 construct: also called biotin-hGremlin
T2 sequence: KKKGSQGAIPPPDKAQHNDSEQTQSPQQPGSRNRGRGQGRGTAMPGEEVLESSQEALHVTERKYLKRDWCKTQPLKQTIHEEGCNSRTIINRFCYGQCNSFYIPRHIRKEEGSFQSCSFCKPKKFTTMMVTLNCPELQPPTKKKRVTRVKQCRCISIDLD
Experimental: (§2) HGREM1 (Peprotech) was immobilized on the Biacore sensor chip. Kinetic experiments were carried out using HBS-EP+ as both the running buffer and the sample buffer. […] Antibody-antigen association was monitored for 180 s while dissociation in buffer was monitored for 360 s. Kinetic analysis was performed using Biacore T200 evaluation software to determine Ka and Kd values. KD was calculated from the experimentally determined Ka and Kd values as KD=Kd/Ka.

HGREM1-His (ACRO) [2] = biological target: T3, HGREM1-His (ACRO) (human, UniProt O60565 25-184); assay: ELISA, binding to hGremlin-his
T3 construct: Lys25-Asp184 of NP_037504 with C-terminal polyhistidine tag (ACRO GR1-H52H3); they are put here; also called hGREM1 (ACRO); human gremlin (ACRO)
T3 sequence: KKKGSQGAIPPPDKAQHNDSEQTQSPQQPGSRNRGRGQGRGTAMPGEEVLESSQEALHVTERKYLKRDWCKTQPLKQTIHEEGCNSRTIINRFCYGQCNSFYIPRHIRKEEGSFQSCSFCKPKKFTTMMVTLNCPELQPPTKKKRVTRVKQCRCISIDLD

hGREM1 (Peprotech) [3] = biological target: T2, hGREM1 (Peprotech); assay: SPR Biacore T200, 25 C, hGREM1 (Peprotech) immobilized, antibody 12.5-400 nM
Experimental: as §2

HGREM1-His (ACRO) [4] = biological target: T3, HGREM1-His (ACRO); assay: ELISA: antibody coated, Gremlin-his titrated, anti-his-HRP; the concentration is that of Gremlin-his
Experimental: as §1

[5] = biological target: T4, hGREM1 (source and construct not stated) (human, UniProt O60565 25-184); assay: ELISA on hGREM1
T4 construct: also called Gremlin; gremlin
T4 sequence: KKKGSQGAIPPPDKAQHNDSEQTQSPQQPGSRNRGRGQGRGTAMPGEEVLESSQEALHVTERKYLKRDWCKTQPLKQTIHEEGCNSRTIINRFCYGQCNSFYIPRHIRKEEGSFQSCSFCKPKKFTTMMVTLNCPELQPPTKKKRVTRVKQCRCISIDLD

Gremlin-Fc = biological target: T5, Gremlin-Fc (human, UniProt O60565 25-184); assay: ELISA, coated BMP2 0.5 ug/ml
T5 construct: also called HGREM1-Fc (ACRO); wild-type gremlin-1
T5 sequence: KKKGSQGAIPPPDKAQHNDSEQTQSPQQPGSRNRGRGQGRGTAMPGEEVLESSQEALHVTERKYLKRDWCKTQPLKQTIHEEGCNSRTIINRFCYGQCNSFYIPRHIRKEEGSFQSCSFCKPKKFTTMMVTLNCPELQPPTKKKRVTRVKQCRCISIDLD
Experimental: Gremlin is known to be able to bind to BMP proteins and is validated by the present disclosure. Briefly, gremlin-Fc was tested for its binding ability to BMP 2/4/7 immobilized on plate. Briefly, plates were coated with […] of recombinant human BMP2, BMP4) (hBMP4, Peprotech) or human BMP7 (R&D) overnight and wild-type gremlin-1 was added to coated plates and allowed to incubate for an additional hour at RT. The plates were then washed and plate bound biotin-hGremlin was detected with neutravidin conjugated with HRP (thermo). Plates were then developed with a TMB solution and stopped by adding stop solution. The plates were read on a plate reader at 450 nm.

HGREM1-His (ACRO) [6] = biological target: T3, HGREM1-His (ACRO); assay: ELISA: coated BMP2, gremlin titrated (sheet title: BMP2/4/7 binding to human gremlin-his)
Mouse Gremlin-His (R&D) = biological target: T6, Mouse Gremlin-His (R&D) (mouse, UniProt O70326 25-184); assay: ELISA on coated Mouse Gremlin-his, anti-mouse IgG-HRP
T6 construct: Lys25-Asp184 with 10xHis, R&D 956-GR; also called mouse gremlin (R&D); mGREM1
T6 sequence: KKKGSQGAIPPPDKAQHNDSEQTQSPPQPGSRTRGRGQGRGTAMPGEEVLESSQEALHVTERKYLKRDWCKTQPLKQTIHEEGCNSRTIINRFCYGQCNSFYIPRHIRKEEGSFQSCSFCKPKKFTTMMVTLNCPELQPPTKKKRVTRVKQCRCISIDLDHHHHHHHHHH
Experimental: (§3) Clear polystyrene plates (BEAVER) were coated with 100 μl/well of a […] hGREM1 (ACRO) and mouse gremlin (R&D) in high pH coating buffer overnight at 4° C. Then the plates were washed once on an automatic plate washer using PBS+0.1% Tween 20 (Sigma). 100 μl of block solution consisting of PBS+1% BSA+1% normal goat serum+0.5% Tween 20 (Sigma) was added to each well and incubated at room temperature for 2 hours. Then 100 μl of antibodies in antibody dilution buffer containing PBS+1% BSA+1% normal goat serum+0.01% Tween 20 starting from 2 μg/ml and then serial dilutions were added to each well of the plate and incubated for 1 hours at room temperature. Afterward the plates were washed three times with 200 μl of PBS+0.1% Tween20 followed by adding 100 μl/well 1:10000 Goat anti mouse IgG-HRP (abcam), and incubate for 1 hour at room temperature. They were then washed 3× with PBS+0.1% Tween20. Finally, 100 µl/well of TMB (Pierce) was added to each well and after several minutes add 50 μl of stop solution to each well. The plates were read on a Multiscan FC microplate reader (Thermo Scientific) at […].

HGREM1-His (ACRO) [7] = biological target: T3, HGREM1-His (ACRO); assay: competition ELISA on captured human gremlin (Acro,0.5ug/ml), lower panel: hybridoma 22F1 titrated against a fixed amount of chimeric 22F1-C, bound chimeric antibody detected
Experimental: (§4) Epitope binning of anti-gremlin hybridoma antibodies were performed using a competition ELISA assay. Clear polystyrene plates (BEAVER) were coated with 100 μl/well of a 0.5 μg/ml hGREM1 (ACRO) in high pH coating buffer overnight at 4° C. Then the plates were washed once on an automatic plate washer using PBS+0.1% Tween 20 (Sigma). 100 μl of block solution consisting of PBS+1% BSA+1% normal goat serum+0.05% Tween 20 (Sigma) was added to each well and incubated at room temperature for 2 hours. Then 50 μl/well of 20 μg/ml saturated antibodies (hybridoma antibodies) in antibody dilution buffer (PBS+1% BSA+1% normal goat serum+0.01% Tween 20) were then added to each well of the plate and incubate for 1 hour. Then add 50 μl/well of 40 ng/ml competitive antibodies (chimeric antibodies, e.g., 14E3-C, 22F1-C, 56C11-C, and 69H5-C) to each well of the plate and incubate for another 1 hour at room temperature. […] The plates were read on a plate reader at 450 nm. The failure of the second antibody to bind in the presence of saturating quantities of the first antibody indicates the two antibodies were in the same epitope bin; the success of the second antibody to bind in the presence of the saturating quantities of the first antibody indicates the two antibodies were in different epitope bins. […]
(§5) The amount of chimeric antibody bound to gremlin were determined.

HGREM1-His (ACRO) [8] = biological target: T3, HGREM1-His (ACRO); assay: ELISA, coated hGREM1 (ACRO)
Experimental: as §3

HGREM1-His (ACRO) [9] = biological target: T3, HGREM1-His (ACRO); assay: competition ELISA on captured human gremlin (Acro,0.5ug/ml), lower panel: hybridoma 22F1 titrated against a fixed amount of chimeric 14E3-C, bound chimeric antibody detected
Experimental: as §4, §5

binding result (XM5-his): binds
koff (hGREM1 (Peprotech) [1]): 0.000882 s⁻¹
kon (hGREM1 (Peprotech) [1]): 49900 M⁻¹ s⁻¹
EC50 (HGREM1-His (ACRO) [2]): 0.0068 µg/mL
Kd (hGREM1 (Peprotech) [3]): 17.7 nM
EC50 (read off the curve) (HGREM1-His (ACRO) [4]): ~0.01 µg/mL
EC50 [5]: 0.00524 µg/mL
B1: 14E3-C (chimeric antibody of 14E3) (antibody, V domains shown)
VH: QIQLVQSGPELKKPGETVKISCKTSGSTFTTYGMAWMKQAPGKGLTWMGWINTLSGEPTYADDFKGRFAFSLKTSANTAYLQINNLKNEDAATYFCAREPMDYWGQGTSVIVSS
VL: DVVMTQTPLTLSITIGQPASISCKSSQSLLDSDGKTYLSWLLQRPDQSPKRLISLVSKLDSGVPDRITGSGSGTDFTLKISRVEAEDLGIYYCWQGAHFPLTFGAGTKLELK
notes: also called chimeric 14E3; 14E3 hIgG1

binding result (Gremlin-Fc): binds
binding result (HGREM1-His (ACRO) [6]): binds
B2: recombinant human BMP2 (ligand, UniProt P12643 283-396, looked up)
chain: QAKHKQRKRLKSSCKRHPLYVDFSDVGWNDWIVAPPGYHAFYCHGECPFPLADHLNSTNHAIVQTLVNSVNSKIPKACCVPTELSAISMLYLDENEKVVLKNYQDMVVEGCGCR
notes: also called hBMP2

binding result (Mouse Gremlin-His (R&D)): no binding
IC50 (read off the curve) (HGREM1-His (ACRO) [7]): ~0.8 µg/mL
EC50 (HGREM1-His (ACRO) [8]): 0.0141 µg/mL
IC50 (read off the curve) (HGREM1-His (ACRO) [9]): ~0.8 µg/mL
B3: 22F1 (antibody, V domains shown)
VH: EAQLQQSGPELVKPGASVKISCKASGYSFTDYYMNWLKQSHGKSLEWIGDINPKDGDSGYSHKFKGKATLTVDKSSSTAYMELRSLTSEDSAVYYCASGFTTVVARGDYWGQGTTLTVSS
VL: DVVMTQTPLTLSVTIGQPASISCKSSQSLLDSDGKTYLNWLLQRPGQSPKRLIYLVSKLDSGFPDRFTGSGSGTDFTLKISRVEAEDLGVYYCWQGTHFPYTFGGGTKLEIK
notes: mouse hybridoma antibody; also called hybridoma 22F1
